Measurements taken from article PMC10420310, “The Complex Proteolipidic Behavior of the SARS-CoV-2 Envelope Protein Channel: Weak Selectivity and Heterogeneous Oligomerization” (International Journal of Molecular Sciences, 2023).

Biological target: the molecule itself
Experiment: AUC; sedimentation velocity, E-TM at DPR 25 (lowest DPR tested) in 5 mM C14SB micelles, 50 mM Tris-HCl pH 7.3, 100 mM NaCl, 29.4% D2O, 20 °C, 50,000 rpm

B1: transmembrane domain of SARS-2 E corresponding to residues 7–38 (E-TM) (peptide)
chain: EETGTLIVNSVLLFLAFVVFLLVTLAILTALR
notes: SARS-CoV-2 envelope (E) protein, transmembrane domain, residues 7-38; monomer 3490 Da; also called E-TM 7–38
**Q.** With B1 as the protein, how does the “stoichiometry N” value read?
**A.** ~3.3
